Measured values reported in patent publication US20240240209A1, “SYNTHESIS OF ENANTIOPURE CIS-A-IRONE FROM A RENEWABLE CARBON SOURCE” (Agency for Science, Technology and Research, priority 2021, published 2024).

Columns and labels:
[1] = Cell lysate reaction of pMT enzymes with psi-ionone, irones quantified by HS-SPME-GCMS; format: biochemical; settings: for fold change in cis-α-irone produced: AUC vs non-mutated (=1)
Summary of the method: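 pMT1 site-saturation mutants were expressed in E. coli BL21(DE3) and lysed, and lysates were incubated 2 days at 28 °C with 0.2 mM SAM and 10 mg/L psi-ionone (plus caryophyllene) in 50 mM Tris pH 7, 10 mM MgCl2. Cis-α-irone was measured by HS-SPME-GCMS peak area and given as fold change over non-mutated enzyme.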

[2] = In vivo cis-α-irone production from glucose/glycerol in strain 2O31 cultures; format: cell-based, Escherichia coli; settings: pMT plasmid transformed into strain 2O31; 2 days
Text: The advantage of in vivo biotransformation is that microbial cells can regenerate expensive co-factors rendering the scale-up bioprocess more cost-effective. […] Thus, pMT was incorporated into our psi-ionone producing microbe^7,8, to synthesize cis-α-irone from cheap renewable carbon sources (glucose/glycerol) (FIG. 4 and FIG. 19). To achieve high productivity, the psi-ionone production was first optimized by multidimensional heuristic process (MHP)^15, and strain 2O31 was identified to be the highest producer for psi-ionone (FIG. 19b). 2O31 was used as the base strain to probe cis-α-irone production in vivo (Table 5). Moreover, to improve the plasmid stability, auxotrophic strain was used with chemically defined media^1. The plasmid carrying pMT1, pMT7 or pMT10 was transformed into the strain 2O31, and produced less than 0.01, about 2 and about 3 mg/L cis-α-irone respectively in 2 days (FIG. 19d). To further optimize irone production with pMT10, three different culture conditions were tested: no methionine or dodecane added (control); 10 mM methionine added; 10 mM methionine and 20% dodecane added. In the control reaction, approximately 4.8 mg/L or 0.85 mg/L/OD cis-α-irone was produced after 3-day incubation (2O31-pMT10, FIGS. 4c and 4e). […] Lastly, when both methionine and dodecane were added, psi-ionone was accumulated in the organic layer and only ˜0.3 mg/L or ˜0.05 mg/L/OD cis-α-irone was produced (2O31-pMT10, FIGS. 4c, d and e). […] The limited methylation efficiency might be due to insufficient cofactor or SAH inhibition. […] In fact, the total amount of psi-ionone and cis-α-irone decreased (FIG. 4c, and d). As SAM biosynthesis is regulated by metJ in E. coli^16,17, the aforementioned six reactions were subsequently examined under metJ deleted genetic background (2O31, ΔmetJ). An increase in cis-α-irone titer to ˜5.7 mg/L was produced by 2O31 ΔmetJ-pMT10 strain with 10 mM methionine supplementation (FIG. 4c). An increase in specific cis-α-irone titer to ˜1.2 mg/L/OD was produced by 2O31 ΔmetJ-pMT10r strain without methionine supplementation (FIG. 4d). […]

B1: pMT1: wild-type bifunctional methyltransferase and cyclase TleD from Streptomyces blastmyceticus (protein, listed as Streptomyces blastmyceticus)
chain: MPQEARTPQQQVTADEVGDWYDKFGEVYHLTLGESVHCGLWFPPDAPVPQDMELVTMSSQAQDRYTDYLIETLDPKAGQHLLDIGCGTGRTALKAARQRGIAVTGVAVSKEQIAAANRLAAGHGLTERLTFEVADAMRLPYEDESFDCAWAIESLCHMDRAKALGEAWRVLKPGGDLLVLESVVTEELTEPETALFETLYAANVPPRLGEFFDIVSGAGFHTLSLKDLSANLAMTMNVFALGVYSRRAEFTERFGAEFVDGLLAGLGSAQETLIRKTRFFMATLRKPAV
- cis-α-irone content (percentage of cis-α-irone in the irone mixture) ([1]; cell extracts with psi-ionone): 21%
- trans-α-irones detected (share of irones) ([1]; cell extracts with psi-ionone): 79%
- fold change in cis-α-irone produced ([1]; pMT1_E153 mutants): 1.0
- fold change in cis-α-irone produced ([1]; pMT1_M236 mutants): 1.0
- fold change in cis-α-irone produced ([1]; pMT1_R160 mutants): 1.0
- fold change in cis-α-irone produced ([1]; pMT1_S182 mutants): 1.0
- fold change in cis-α-irone produced ([1]; pMT1_Y200 mutants): 1.0
- cis-α-irone produced [2]: less than 0.01 mg/L
